Test results reported in patent US12065466B2, “Methods and compositions for protein sequencing” (Quantum-Si Incorporated, priority 2020, dated 2024).

Tests used:
[1] = test system: peptides with different N-terminal amino acids, penultimate alanine; assay: Biolayer interferometry of multivalent amino acid binders; type: binding
Method: The amino acid binding profile of each Bis-atClpS2-V1 binder (PS609, PS610, and PS611) was evaluated by biolayer interferometry as described above. The monovalent atClpS2-V1 was run as a control. Measurements with each binder were carried out for the amino acids F, Y, and W, along with I, L, M, and V as negative controls. All peptides contained a penultimate alanine (A). Response curves for the tandem binders PS609, PS610, and PS611 are shown in FIGS. 35B, 35C, and 35D, respectively.
The multivalent binder PS612 is a polypeptide that contains tandem copies of two different ClpS protein monomers (atClpS2-V1 and PS372). The amino acid binding profile of PS612 was evaluated by biolayer interferometry as described above. The monovalent binders atClpS2-V1 and PS372 were separately run as controls.
The multivalent binder PS614 is a polypeptide that contains two copies of the ClpS binder PS372 oriented in tandem. The amino acid binding profile of PS614 was evaluated by biolayer interferometry as described above.
The multivalent binders PS637, PS638, and PS639 are polypeptides that each contain two copies of the ClpS binder PS557 oriented in tandem and separated by Linker 1, Linker 2, and Linker 3, respectively. The amino acid binding profiles of each binder was evaluated by biolayer interferometry as described above.

[2] = test system: labeled N-terminal FA peptide; assay: Stopped-flow dissociation rate (koff), atClpS2-V1 derivatives; type: binding; conditions: excess unlabeled trap peptide
Excerpt: (§1) To measure the dissociation rate (koff) by stopped-flow, complexes of binder bound to labeled peptide substrate at an optimal concentration were rapidly mixed with excess unlabeled trap peptide. […] The averaged raw traces were fitted with an exponential equation to determine the koff (FIG. 37B, bottom panel).

[3] = test system: FA, LF, WA, and YA peptides; assay: Binder-on-chip single-molecule assay (PS218 and wild-type atClpS1); type: binding; set-up: unit not given here
Method: A variant of atClpS1 was created with active-site substitutions rationally designed to achieve longer pulse widths which can be favorable in single-molecule sequencing reactions. The designed variant (PS218) contains the following mutations relative to wild-type atClpS1: M51F, E52Q, M73T, T70 W. Binder-on-chip experiments were performed for PS218 with FA, LF, WA, and YA peptides to evaluate recognition by signal pulse detection in single-molecule assays. As shown by the results in Table 7, the substitutions relative to the wild-type protein result in longer pulse widths with each peptide tested.

[4] = test system: amino acid at a terminal position of a polypeptide; assay: Amino acid binding preference of recognition proteins (Tables 1 and 2); conditions: Table 1, ClpS proteins; amino acid identity at a terminal position of a polypeptide; inferred from literature and/or demonstrated by the inventors
Excerpt: It should be appreciated that these sequences and other examples described herein are meant to be non-limiting, and recognition molecules in accordance with the application can include any homologs, variants thereof, or fragments thereof minimally containing domains or subdomains responsible for peptide recognition.

[5] = test system: labeled N-terminal LA peptide; assay: Stopped-flow dissociation rate (koff), PS557 derivatives; type: binding; conditions: excess unlabeled trap peptide
Excerpt: as §1

[6] = test system: N-terminal amino acids of peptides; assay: Single-molecule terminal amino acid recognition by labeled recognition molecule (dwell time analysis); type: binding
Method: An adaptor protein involved in proteolytic pathways was identified as a potential candidate for use as a labeled recognition molecule for detecting N-terminal aromatic residues. The adaptor protein, ClpS2 from an α-proteobacterium (A. tumefaciens), was expressed and labeled at an exposed cysteine residue. […] The exposed cysteine residue was labeled with a rhodamine dye (ATTO 532).
Peptides having different N-terminal aromatic residues were prepared to test whether the labeled ClpS2 was capable of N-terminal amino acid discrimination at the single molecule level.
FIG. 19C is a plot showing discriminant pulse durations (time duration of signal peaks) among the three N-terminal residues when reversibly bound by labeled ClpS2. FIG. 19D is a plot showing discriminant interpulse durations (time duration between signal pulses) among the three N-terminal residues. […] Mean pulse duration for the different N-terminal residues is visualized by histograms (A)-(B) and layered histogram (C).

B1: PS614: polypeptide with two copies of the ClpS binder PS372 oriented in tandem (protein)
chain: MAFPARGKTAPKNEVRRQPPYNVILLNDDDHTYRYVIEMLQKIFGFPPEKGFQIAEEVDRTGRVILLTTSKEHAELKQDQVHSYGPDPYLGRPCSGSMTCVIEPAVGSAGSAAGSGEFMAFPARGKTAPKNEVRRQPPYNVILLNDDDHTYRYVIEMLQKIFGFPPEKGFQIAEEVDRTGRVILLTTSKEHAELKQDQVHSYGPDPYLGRPCSGSMTCVIEPAVGGSHHHHHHHHHHGGGSGGGSGGGSGLNDFFEAQKIEWHEGGGSGGGSGGGSGLNDFFEAQKIEWHE
B1 was tested, and the “N-terminal amino acids bound (biolayer interferometry)” value (from here on “N-terminal amino acids bound”) [1] was “N-terminal I, L, and V”.

B2: PS612: polypeptide with tandem copies of two different ClpS monomers (atClpS2-V1 and PS372) (protein)
chain: MSDSPVDLKPKPKVKPKLERPKLYKVMLLNDDYTPMSFVTVVLKAVFRMSEDTGRRVMMTAHRFGSAVVVVCERDIAETKAKEATDLGKEAGFPLMFTTEPEEGSAGSAAGSGEFMAFPARGKTAPKNEVRRQPPYNVILLNDDDHTYRYVIEMLQKIFGFPPEKGFQIAEEVDRTGRVILLTTSKEHAELKQDQVHSYGPDPYLGRPCSGSMTCVIEPAVGGSHHHHHHHHHHGGGSGGGSGGGSGLNDFFEAQKIEWHEGGGSGGGSGGGSGLNDFFEAQKIEWHE
B2 was tested, and the “N-terminal amino acids bound” value [1] was “N-terminal F, W, Y, I, L, and V”.

B3: PS638: two copies of PS557 in tandem separated by Linker 2 (protein)
chain: MPTAASATESAIEDTPAPARPEVDGRTKPKRQPRYHVVLWNDDDHTYQYVVVMLQSLFGHPPERGYRLAKEVDTQGRVIVLTTTREHAELKRDQIHAFGYDRLLARSKGSMKASIEAEEGSAGSAAGSGEFMPTAASATESAIEDTPAPARPEVDGRTKPKRQPRYHVVLWNDDDHTYQYVVVMLQSLFGHPPERGYRLAKEVDTQGRVIVLTTTREHAELKRDQIHAFGYDRLLARSKGSMKASIEAEEGGSHHHHHHHHHHGGGSGGGSGGGSGLNDFFEAQKIEWHEGGGSGGGSGGGSGLNDFFEAQKIEWHE
B3 was tested, and the “N-terminal amino acids bound” value [1] was “N-terminal I, L, and V”.

B4: PS704 (protein)
chain: MSDSPVDLKPKPKVKPKLERPKLYKVMLLNDDYTPMSFVTVVLKAVFRMSEDTGRRVMMTAHRFGSAVVVVCERDIAETKAKEATDLGKEAGFPLMFTTEPEEGSAGSAAGSGEFMDKDCEMKRTTLDSPLGKLELSGCEQGLHEIKLLGKGTSAADAVEVPAPAAVLGGPEPLMQATAWLNAYFHQPEAIEEFPVPALHHPVFQQESFTRQVLWKLLKVVKFGEVISYQQLAALAGNPAATAAVKTALSGNPVPILIPCHRVVSSSGAVGGYEGGLAVKEWLLAHEGHRLGKPGLGMDKDCEMKRTTLDSPLGKLELSGCEQGLHEIKLLGKGTSAADAVEVPAPAAVLGGPEPLMQATAWLNAYFHQPEAIEEFPVPALHHPVFQQESFTRQVLWKLLKVVKFGEVISYQQLAALAGNPAATAAVKTALSGNPVPILIPCHRVVSSSGAVGGYEGGLAVKEWLLAHEGHRLGKPGLGGSAGSAAGSGEFHHHHHHHHHHGGGSGGGSGGGSGLNDFFEAQKIEWHEGGGSGGGSGGGSGLNDFFEAQKIEWHE
B4 showed an FA koff [2] of 0.6774 s⁻¹.

B5: PS218: designed variant of atClpS1 with active-site substitutions, SEQ ID NO: 98 (protein)
chain: MIAEPICMQGEGDGEDGGTNRGTSVITRVKPKTKRPNLYRVLLLNDDYTPFQFVIHILERFFQKDREAAWRITLHVHQHGVGECGVFTYEVAETKVSQVMDFARQHQHPLQCVMEKK
In the case of B5, the “Median PW” value ([3]; FA peptide) is reported as 0.78, the mean pulse width ([3]; FA peptide) is reported as 1.28 and the “Median PW” value ([3]; LF peptide) is reported as 0.32. For the same molecule, the mean pulse width ([3]; LF peptide) was 0.56, the “Median PW” value ([3]; WA peptide) was 0.58 and the mean pulse width ([3]; WA peptide) was 1.00. The “Median PW” value ([3]; YA peptide) was 1.06, the mean pulse width ([3]; YA peptide) was 1.64 and the “Binding Pref.” value [4] was “F, W, Y, L”.

B6: PS703 (protein)
chain: MSDSPVDLKPKPKVKPKLERPKLYKVMLLNDDYTPMSFVTVVLKAVFRMSEDTGRRVMMTAHRFGSAVVVVCERDIAETKAKEATDLGKEAGFPLMFTTEPEEGSAGSAAGSGEFMDKDCEMKRTTLDSPLGKLELSGCEQGLHEIKLLGKGTSAADAVEVPAPAAVLGGPEPLMQATAWLNAYFHQPEAIEEFPVPALHHPVFQQESFTRQVLWKLLKVVKFGEVISYQQLAALAGNPAATAAVKTALSGNPVPILIPCHRVVSSSGAVGGYEGGLAVKEWLLAHEGHRLGKPGLGGSAGSAAGSGEFHHHHHHHHHHGGGSGGGSGGGSGLNDFFEAQKIEWHEGGGSGGGSGGGSGLNDFFEAQKIEWHE
In the case of B6, the FA koff [2] is reported as 0.7674 s⁻¹.

B7: PS696 (protein)
chain: MPTAASATESAIEDTPAPARPEVDGRTKPKRQPRYHVVLWNDDDHTYQYVVVMLQSLFGHPPERGYRLAKEVDTQGRVIVLTTTREHAELKRDQIHAFGYDRLLARSKGSMKASIEAEEGSAGSAAGSGEFMDKDCEMKRTTLDSPLGKLELSGCEQGLHEIKLLGKGTSAADAVEVPAPAAVLGGPEPLMQATAWLNAYFHQPEAIEEFPVPALHHPVFQQESFTRQVLWKLLKVVKFGEVISYQQLAALAGNPAATAAVKTALSGNPVPILIPCHRVVSSSGAVGGYEGGLAVKEWLLAHEGHRLGKPGLGGSAGSAAGSGEFHHHHHHHHHHGGGSGGGSGGGSGLNDFFEAQKIEWHEGGGSGGGSGGGSGLNDFFEAQKIEWHE
For B7, the LA koff [5] was 0.15 s⁻¹.

B8: PS637: two copies of PS557 in tandem separated by Linker 1 (protein)
chain: MPTAASATESAIEDTPAPARPEVDGRTKPKRQPRYHVVLWNDDDHTYQYVVVMLQSLFGHPPERGYRLAKEVDTQGRVIVLTTTREHAELKRDQIHAFGYDRLLARSKGSMKASIEAEEGGGSGGGSGGGSGMPTAASATESAIEDTPAPARPEVDGRTKPKRQPRYHVVLWNDDDHTYQYVVVMLQSLFGHPPERGYRLAKEVDTQGRVIVLTTTREHAELKRDQIHAFGYDRLLARSKGSMKASIEAEEGGSHHHHHHHHHHGGGSGGGSGGGSGLNDFFEAQKIEWHEGGGSGGGSGGGSGLNDFFEAQKIEWHE
In the case of B8, the “N-terminal amino acids bound” value [1] is reported as “N-terminal I, L, and V”.

B9: PS639: two copies of PS557 in tandem separated by Linker 3 (protein)
chain: MPTAASATESAIEDTPAPARPEVDGRTKPKRQPRYHVVLWNDDDHTYQYVVVMLQSLFGHPPERGYRLAKEVDTQGRVIVLTTTREHAELKRDQIHAFGYDRLLARSKGSMKASIEAEEGSAGSAAGSGEFGSAGSAAGSGEFGSAGSAAGSGEFMPTAASATESAIEDTPAPARPEVDGRTKPKRQPRYHVVLWNDDDHTYQYVVVMLQSLFGHPPERGYRLAKEVDTQGRVIVLTTTREHAELKRDQIHAFGYDRLLARSKGSMKASIEAEEGGSHHHHHHHHHHGGGSGGGSGGGSGLNDFFEAQKIEWHEGGGSGGGSGGGSGLNDFFEAQKIEWHE
In the case of B9, the “N-terminal amino acids bound” value [1] is reported as “N-terminal I, L, and V”.

B10: Synechococcus elongatus ClpS2: ClpS protein, SEQ ID NO: 106 (protein, listed as Synechococcus elongatus)
chain: MSPQPDESVLSILGVPRPCVKKRSRNDAFVLTVLTCSLQAIAAPATAPGTTTTRVRQPYPHFRVIVLDDDVNTFQHVAECLLKYIPGMTGDRAWDLTNQVHYEGAATVWSGPQEQAELYHEQLRREGLTMAPLEAA
In the case of B10, the “recognition of terminal amino acids (dwell time analysis)” value [6] is reported as “leucine recognition” and the “Binding Pref.” value [4] is reported as “F, W, Y, L”.
